Assay [1] has as its target T1, biotinylated NANP-peptide (Plasmodium falciparum).
T1 construct: also called NANP-repeat region of CSP
T1 peptide: Biotin-NANPNANPNANPNANPNA
As to the kind of experiment: ELISA, biotinylated peptide on avidin-coated plates, titrated IgG.
Experimental: (§1) To test specific antibody binding to (i) the NANP-repeat region of CSP and (ii) the N-terminal region of CSP covering the junction between the N-terminal domain and the NANP-repeats, ELISA plates were coated with 10 μg/ml of avidin (Sigma). […] The plates were washed and incubated with titrated monoclonal antibodies, followed by 1/500 AP-conjugated goat anti-human IgG (Southern Biotech) and pNPP substrate. EC50 (ng/ml) values were calculated for every sample tested by nonlinear regression analysis using the Graph Pad Prism 7 software.

The target in assay [2] is T2, biotinylated NPDP-peptide (Plasmodium falciparum, also: biotinylated).
T2 peptide: KQPADGNPDPNANPN
Described as above.
Experimental: as §1

Assay [3] concerns the target T1, biotinylated NANP-peptide. The description is as above.
Experimental: as §1
Assay [4] addresses T2, biotinylated NPDP-peptide. Described as above.
Experimental: as §1
The target in assay [5] is T1, biotinylated NANP-peptide. As to the kind of experiment: ELISA, biotinylated peptide on streptavidin-coated plates.
The target in assay [6] is T3, biotinylated NPDP19-peptide (Plasmodium falciparum).
T3 peptide: Biotin-KQPADGNPDPNANPNVDPN
The description is as above.

Substitutions are numbered along the chain they refer to. Like-named read-outs stand apart in the source and are kept apart here. Where no end group is shown, it is not given here. The star is where a group is joined. Biotin = O=C1N[C@H]2[C@H](CS[C@H]2CCCCC(=O)*)N1

In general, EC50 refers to the midpoint of the concentration-response curve.

B1: MGH2 (antibody, V domains shown)
VH: QVQLVESGGGVVQPGGSLRLSCTASGFSFSSYAMHWVRQAPGKGLEWVAYTRYDGSNKFYLDSVQGRFTISRDNSKNTLYLEMDSLRLEDTAVYFCAKVGDGTVAGTIDYWGQGTLVTVSS
VL: YIVMTQSPLSLPVTLGQPASISCRSSQSLVYSDGNTYLNWYQQRPGQSPRRLIYKVSNRDSGVPDRFSGSGSGTDFTLKISRVEAEDVGVYYCMQGTHWWTFGQGTKVEIK
notes: also called parental antibody MGH2
B1: the 50% effective concentration (EC50) turned out to be 0.0279 µg/mL in assay [1] and 0.0488 µg/mL in assay [2].

B2: MGH2variant1 (antibody, V domains shown)
VH: B1 VH
VL: B1 VL with W99F
notes: Expressed as IgG1; also called MGH2v1
In the case of B2, the half-maximal effective concentration (EC50) in assay [1] is 0.0223 µg/mL; in assay [2], 0.0658 µg/mL.

B3: MGU10 (antibody, V domains shown)
VH: QVQLVESGGGVVQPGRSLRLSCAASGFAFSNYGMNWVRQAPGKGLEWVAVIWHDGSLKYYTQSVKGRFTISRDNAKNTLFLQMDSLSADDTAMYYCTVWYLETPDDGFDIWGRGTMVTVSS
VL: QLVLTQPPSASASLGVSVTLTCTLSHGHTSKAIAWHQQQPGKGPRYLMKVNSDGSHTKGAAVPDRFSGSTSGAERHFTISNLQSDDEADYYCQAWDSGIWVFGGGTKLTVL
notes: also called parental antibody MGU10
Consider B3, for which the concentration for a half-maximal effect (EC50) in assay [3] came to 0.0343 µg/mL; in assay [4], 0.0261 µg/mL.

B4: MGU10variant3 (antibody, V domains shown)
VH: B3 VH
VL: B3 VL with D96E
notes: Expressed as IgG1; also called MGU10v3
As for B4, the 50% effective concentration (EC50) in assay [3] worked out at 0.0263 µg/mL; in assay [4], 0.0251 µg/mL.

B5: MGU10variant1 (antibody, V domains shown)
VH: B3 VH with N35H, R113Q
VL: B3 VL
notes: Expressed as IgG1 in Expi293F cells and tested as quantified culture supernatant; also called MGU10v1
Turning to B5, the figures for the EC50 in assay [3] and in assay [4] were 0.0285 µg/mL and 0.0225 µg/mL, respectively.

B6: MGU10variant8 (antibody, V domains shown)
VH: B3 VH with D89E, D106E
VL: B3 VL
notes: also called MGU10v8
B6: the binding result in assay [5] and in assay [6] was “binds” each time.

B7: MGU10variant2 (antibody, V domains shown)
VH: B3 VH with D106E
VL: B3 VL
notes: Expressed as IgG1; also called MGU10v2
As for B7, the binding result in assay [6] is recorded as “binds”. For the same molecule, the EC50 in assay [3] was found to be 0.0268 µg/mL; in assay [4] it was 0.0204 µg/mL.

Values taken from patent publication US20230084102A1 (HUMABS BIOMED, published 2023).
